Here are results for 125 sequences from the supplement of paper PMC9112550, “Optimization of the antimicrobial peptide Bac7 by deep mutational scanning” (BMC Biology, 2022).
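Note: peptides expressed intracellularly from a pBAD plasmid library in pooled LB shake-flask culture, induced with 0.3% L-arabinose, DNA abundance read by NGS, three biological replicates, DESeq2 with apeglm shrinkage.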

For the series, the system named is Escherichia coli TOP10. The experiment in a line: shrunken log2 fold change of peptide-encoding DNA abundance (4.5 h post-induction vs induction); higher = less antimicrobial activity (less host growth inhibition). The conditions noted are these: time post-induction: 4.5 h; library: site-saturation at positions 5, 18, 19, 20.
With RRIRVRPPRLPRPRPRPRPSPRP, the “shrunken log2 fold change” value was found to be 0.382.

For RRIRFRPPRLPRPRPRPNGLPRP, the “shrunken log2 fold change” value was -0.0551.

With RRIRFRPPRLPRPRPRPVAWPRP, the “shrunken log2 fold change” value was determined as 0.119.

As to RRIRARPPRLPRPRPRPLISPRP, the “shrunken log2 fold change” value is -0.0384.

In the case of RRIRDRPPRLPRPRPRPGSSPRP, the “shrunken log2 fold change” value worked out at 0.0783.

For the sequence RRIRDRPPRLPRPRPRPHAYPRP, the “shrunken log2 fold change” value was -0.218.

RRIRRRPPRLPRPRPRPPWYPRP: the “shrunken log2 fold change” value came out at 0.0413.

With RRIRHRPPRLPRPRPRPCYHPRP, the “shrunken log2 fold change” value was -0.00149.

RRIRMRPPRLPRPRPRPHCEPRP: the “shrunken log2 fold change” value is -0.0828.

RRIRLRPPRLPRPRPRPLDYPRP: the “shrunken log2 fold change” value was -0.157.

Consider RRIRRRPPRLPRPRPRPHIKPRP, for which the “shrunken log2 fold change” value was -0.43.

With RRIRQRPPRLPRPRPRPSAGPRP, the “shrunken log2 fold change” value was 0.0717.

Consider RRIRCRPPRLPRPRPRPAMAPRP, for which the “shrunken log2 fold change” value amounted to 0.199.

Take RRIRARPPRLPRPRPRPIHEPRP: the “shrunken log2 fold change” value is -0.0242.

As to RRIRIRPPRLPRPRPRPSILPRP, the “shrunken log2 fold change” value was -0.878.

For the sequence RRIRTRPPRLPRPRPRPSKMPRP, the “shrunken log2 fold change” value was -0.793.

For the sequence RRIRTRPPRLPRPRPRPEQAPRP, the “shrunken log2 fold change” value worked out at 0.173.

As for RRIRERPPRLPRPRPRPQCSPRP, the “shrunken log2 fold change” value is -0.442.

With RRIRDRPPRLPRPRPRPEWAPRP, the “shrunken log2 fold change” value stood at 0.746.

With RRIRARPPRLPRPRPRPFDSPRP, the “shrunken log2 fold change” value is -0.0745.

In the case of RRIRYRPPRLPRPRPRPVCHPRP, the “shrunken log2 fold change” value is -0.583.

RRIRFRPPRLPRPRPRPSDEPRP: the “shrunken log2 fold change” value was -0.308.

RRIRTRPPRLPRPRPRPFWKPRP: the “shrunken log2 fold change” value was found to be 0.0184.

With RRIRLRPPRLPRPRPRPLFIPRP, the “shrunken log2 fold change” value is -0.539.

Regarding RRIRARPPRLPRPRPRPRLIPRP, the “shrunken log2 fold change” value is 0.235.

As for RRIRCRPPRLPRPRPRPPHLPRP, the “shrunken log2 fold change” value came out at 0.079.

As to RRIRYRPPRLPRPRPRPDWYPRP, the “shrunken log2 fold change” value was -0.968.

Take RRIRMRPPRLPRPRPRPTFKPRP: the “shrunken log2 fold change” value was found to be 0.198.

For RRIRIRPPRLPRPRPRPFKSPRP, the “shrunken log2 fold change” value is -0.023.

As to RRIRWRPPRLPRPRPRPKEMPRP, the “shrunken log2 fold change” value came to 0.476.

For RRIRSRPPRLPRPRPRPCKVPRP, the “shrunken log2 fold change” value is -0.265.

Turning to RRIRIRPPRLPRPRPRPSFIPRP, the “shrunken log2 fold change” value is -1.24.

Consider RRIRYRPPRLPRPRPRPMMLPRP, for which the “shrunken log2 fold change” value was -0.00141.

As to RRIRSRPPRLPRPRPRPGGVPRP, the “shrunken log2 fold change” value came to 0.326.

For the sequence RRIRFRPPRLPRPRPRPIKKPRP, the “shrunken log2 fold change” value is 0.0144.

In the case of RRIRHRPPRLPRPRPRPSHHPRP, the “shrunken log2 fold change” value is -0.267.

On to RRIRYRPPRLPRPRPRPSPKPRP, for which the “shrunken log2 fold change” value was -0.105.

Take RRIRTRPPRLPRPRPRPVRLPRP: the “shrunken log2 fold change” value is -0.0555.

With RRIRTRPPRLPRPRPRPNADPRP, the “shrunken log2 fold change” value was -0.00181.

With RRIRERPPRLPRPRPRPYQKPRP, the “shrunken log2 fold change” value is -0.0207.

RRIRSRPPRLPRPRPRPVRKPRP: the “shrunken log2 fold change” value turned out to be 0.324.

For RRIRFRPPRLPRPRPRPTRYPRP, the “shrunken log2 fold change” value came to 0.172.

Turning to RRIRRRPPRLPRPRPRPTRMPRP, the “shrunken log2 fold change” value amounted to 1.08.

Turning to RRIRTRPPRLPRPRPRPKYVPRP, the “shrunken log2 fold change” value came out at 0.0339.

As to RRIRRRPPRLPRPRPRPGWFPRP, the “shrunken log2 fold change” value turned out to be 0.283.

Turning to RRIRRRPPRLPRPRPRPVLAPRP, the “shrunken log2 fold change” value turned out to be 0.83.

For RRIRFRPPRLPRPRPRPKHSPRP, the “shrunken log2 fold change” value is -0.434.

For the sequence RRIRERPPRLPRPRPRPEFDPRP, the “shrunken log2 fold change” value came out at 0.039.

As to RRIRARPPRLPRPRPRPFNNPRP, the “shrunken log2 fold change” value is -0.688.

Turning to RRIRVRPPRLPRPRPRPYGRPRP, the “shrunken log2 fold change” value was -0.0856.

For the sequence RRIRRRPPRLPRPRPRPIFHPRP, the “shrunken log2 fold change” value amounted to 0.129.

Take RRIRFRPPRLPRPRPRPDTLPRP: the “shrunken log2 fold change” value was -0.0946.

As for RRIRYRPPRLPRPRPRPWLSPRP, the “shrunken log2 fold change” value is -0.205.

Take RRIRERPPRLPRPRPRPISIPRP: the “shrunken log2 fold change” value was -0.258.

Turning to RRIRYRPPRLPRPRPRPVCRPRP, the “shrunken log2 fold change” value is -0.0607.

RRIRMRPPRLPRPRPRPHLPPRP: the “shrunken log2 fold change” value was -0.00448.

For the sequence RRIRDRPPRLPRPRPRPPNGPRP, the “shrunken log2 fold change” value is 0.0163.

Take RRIRIRPPRLPRPRPRPTRPPRP: the “shrunken log2 fold change” value amounted to 0.763.

With RRIRDRPPRLPRPRPRPSPSPRP, the “shrunken log2 fold change” value is -0.018.

For RRIRFRPPRLPRPRPRPICNPRP, the “shrunken log2 fold change” value is -0.424.

In the case of RRIRWRPPRLPRPRPRPQIKPRP, the “shrunken log2 fold change” value was -0.21.

As for RRIRWRPPRLPRPRPRPVQLPRP, the “shrunken log2 fold change” value was found to be 0.034.

As to RRIRIRPPRLPRPRPRPAIRPRP, the “shrunken log2 fold change” value was -0.161.

As to RRIRRRPPRLPRPRPRPAEDPRP, the “shrunken log2 fold change” value was 0.987.

On to RRIRQRPPRLPRPRPRPFFKPRP, for which the “shrunken log2 fold change” value was -0.132.

On to RRIRRRPPRLPRPRPRPWARPRP, for which the “shrunken log2 fold change” value amounted to 0.222.

Turning to RRIRPRPPRLPRPRPRPGWWPRP, the “shrunken log2 fold change” value is 0.356.

In the case of RRIRRRPPRLPRPRPRPLPAPRP, the “shrunken log2 fold change” value amounted to 0.599.

As to RRIRHRPPRLPRPRPRPSANPRP, the “shrunken log2 fold change” value is -0.228.

With RRIRYRPPRLPRPRPRPLGVPRP, the “shrunken log2 fold change” value is -0.0163.

With RRIRCRPPRLPRPRPRPPTLPRP, the “shrunken log2 fold change” value is -0.0423.

RRIRFRPPRLPRPRPRPLVIPRP: the “shrunken log2 fold change” value was -0.78.

As to RRIRCRPPRLPRPRPRPYPYPRP, the “shrunken log2 fold change” value is -0.248.

On to RRIRNRPPRLPRPRPRPYYVPRP, for which the “shrunken log2 fold change” value is -0.207.

For the sequence RRIRTRPPRLPRPRPRPCLPPRP, the “shrunken log2 fold change” value was -0.0953.

With RRIRHRPPRLPRPRPRPVTKPRP, the “shrunken log2 fold change” value is -0.055.

In the case of RRIRKRPPRLPRPRPRPIQIPRP, the “shrunken log2 fold change” value is -0.14.

As for RRIRGRPPRLPRPRPRPSGDPRP, the “shrunken log2 fold change” value came out at 0.952.

With RRIRERPPRLPRPRPRPKIFPRP, the “shrunken log2 fold change” value was 0.0686.

For the sequence RRIRKRPPRLPRPRPRPCACPRP, the “shrunken log2 fold change” value came to 0.0293.

As for RRIRVRPPRLPRPRPRPFPDPRP, the “shrunken log2 fold change” value was -0.345.

As to RRIRWRPPRLPRPRPRPKLCPRP, the “shrunken log2 fold change” value turned out to be 0.0167.

As to RRIRLRPPRLPRPRPRPYPRPRP, the “shrunken log2 fold change” value is -0.0678.

In the case of RRIRPRPPRLPRPRPRPHPTPRP, the “shrunken log2 fold change” value amounted to 0.17.

Take RRIRLRPPRLPRPRPRPPEFPRP: the “shrunken log2 fold change” value is 0.0526.

Regarding RRIRSRPPRLPRPRPRPDFKPRP, the “shrunken log2 fold change” value was -0.0946.

As to RRIRWRPPRLPRPRPRPHMNPRP, the “shrunken log2 fold change” value is -0.667.

In the case of RRIRIRPPRLPRPRPRPVRIPRP, the “shrunken log2 fold change” value came out at 0.154.

With RRIRHRPPRLPRPRPRPLGPPRP, the “shrunken log2 fold change” value worked out at 0.191.

As to RRIRSRPPRLPRPRPRPRKYPRP, the “shrunken log2 fold change” value was -0.312.

On to RRIRERPPRLPRPRPRPVQYPRP, for which the “shrunken log2 fold change” value was -0.418.

In the case of RRIRRRPPRLPRPRPRPVCAPRP, the “shrunken log2 fold change” value was determined as 0.547.

As to RRIRHRPPRLPRPRPRPQNAPRP, the “shrunken log2 fold change” value is -0.135.

For RRIRHRPPRLPRPRPRPRLYPRP, the “shrunken log2 fold change” value was 0.114.

Consider RRIRERPPRLPRPRPRPSPTPRP, for which the “shrunken log2 fold change” value was determined as 0.0865.

For the sequence RRIRIRPPRLPRPRPRPRKCPRP, the “shrunken log2 fold change” value was -0.599.

Consider RRIRLRPPRLPRPRPRPRYIPRP, for which the “shrunken log2 fold change” value is -0.683.

With RRIRPRPPRLPRPRPRPNQQPRP, the “shrunken log2 fold change” value amounted to 0.0352.

With RRIRDRPPRLPRPRPRPNEDPRP, the “shrunken log2 fold change” value worked out at 0.00355.

Take RRIRPRPPRLPRPRPRPQTPPRP: the “shrunken log2 fold change” value came to 0.313.

RRIRQRPPRLPRPRPRPYRSPRP: the “shrunken log2 fold change” value was -0.0119.

Turning to RRIRSRPPRLPRPRPRPDVCPRP, the “shrunken log2 fold change” value turned out to be 0.0421.

Consider RRIRMRPPRLPRPRPRPACHPRP, for which the “shrunken log2 fold change” value was 0.151.

Take RRIRWRPPRLPRPRPRPTKWPRP: the “shrunken log2 fold change” value was -0.126.

For RRIRLRPPRLPRPRPRPPCVPRP, the “shrunken log2 fold change” value is -0.0544.

Regarding RRIRQRPPRLPRPRPRPEADPRP, the “shrunken log2 fold change” value was 0.138.

Take RRIRMRPPRLPRPRPRPVRHPRP: the “shrunken log2 fold change” value was 0.237.

For the sequence RRIRERPPRLPRPRPRPLTDPRP, the “shrunken log2 fold change” value was -0.394.

Turning to RRIRIRPPRLPRPRPRPWLTPRP, the “shrunken log2 fold change” value is -0.096.

RRIRYRPPRLPRPRPRPVHDPRP: the “shrunken log2 fold change” value is -0.372.

In the case of RRIRGRPPRLPRPRPRPSGFPRP, the “shrunken log2 fold change” value came out at 0.547.

Regarding RRIRIRPPRLPRPRPRPKFSPRP, the “shrunken log2 fold change” value is -0.244.

Regarding RRIRLRPPRLPRPRPRPHNTPRP, the “shrunken log2 fold change” value is -0.61.

Turning to RRIRCRPPRLPRPRPRPSGQPRP, the “shrunken log2 fold change” value was -0.0552.

As for RRIRPRPPRLPRPRPRPMSVPRP, the “shrunken log2 fold change” value was found to be 0.0754.

Consider RRIRQRPPRLPRPRPRPNECPRP, for which the “shrunken log2 fold change” value was determined as 0.033.

For RRIRVRPPRLPRPRPRPCDEPRP, the “shrunken log2 fold change” value was -0.488.

As for RRIRTRPPRLPRPRPRPQEAPRP, the “shrunken log2 fold change” value worked out at 0.0871.

As to RRIRHRPPRLPRPRPRPRWCPRP, the “shrunken log2 fold change” value was found to be 0.0475.

Turning to RRIRSRPPRLPRPRPRPDHRPRP, the “shrunken log2 fold change” value was determined as 0.0482.

For RRIRCRPPRLPRPRPRPGFKPRP, the “shrunken log2 fold change” value was -0.226.

Take RRIRQRPPRLPRPRPRPVMCPRP: the “shrunken log2 fold change” value is -0.119.

On to RRIRMRPPRLPRPRPRPGGHPRP, for which the “shrunken log2 fold change” value amounted to 0.516.

In the case of RRIRCRPPRLPRPRPRPHEIPRP, the “shrunken log2 fold change” value amounted to 0.322.

Take RRIRKRPPRLPRPRPRPVKIPRP: the “shrunken log2 fold change” value worked out at 0.158.
